In publication PMC9668737, “Herpes simplex virus 1 protein pUL21 alters ceramide metabolism by activating the interorganelle transport protein CERT” (The Journal of Biological Chemistry, 2022):
Where “and” joins values, the source holds several entries; their conditions need not be identical. Identical values can stand only once.

T1: H6-pUL21C (C-terminal domain of HSV-1 pUL21, amino acids 275 to 535) (herpes simplex virus 1, UniProt F8RG07 275-535)
T1 construct: C-terminal domain of pUL21 of herpes simplex virus 1, residues 275-535 of UniProt F8RG07; source: E. coli T7 Express lysY/Iq, purified (Ni-NTA, SEC); not shown: MAH6, N-terminal, kept
T1 sequence: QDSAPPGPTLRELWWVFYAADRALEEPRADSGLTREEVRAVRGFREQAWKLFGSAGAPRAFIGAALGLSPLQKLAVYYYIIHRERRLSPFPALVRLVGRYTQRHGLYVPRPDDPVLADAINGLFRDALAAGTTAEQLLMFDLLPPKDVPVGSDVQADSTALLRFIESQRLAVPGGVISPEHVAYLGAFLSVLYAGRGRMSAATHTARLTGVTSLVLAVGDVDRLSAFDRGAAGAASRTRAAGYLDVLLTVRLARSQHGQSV

T2: pUL21^V382E-H6 (HSV-1 pUL21 with V382E) (herpes simplex virus 1, UniProt F8RG07 1-535, V382E)
T2 construct: tegument protein pUL21 of herpes simplex virus 1, UniProt F8RG07, with V382E; the text also writes H6-pUL21^V382E; also called H6-pUL21^V382E; source: E. coli T7 Express lysY/Iq, purified (Ni-NTA, SEC); not shown: His6, C-terminal, kept
T2 sequence: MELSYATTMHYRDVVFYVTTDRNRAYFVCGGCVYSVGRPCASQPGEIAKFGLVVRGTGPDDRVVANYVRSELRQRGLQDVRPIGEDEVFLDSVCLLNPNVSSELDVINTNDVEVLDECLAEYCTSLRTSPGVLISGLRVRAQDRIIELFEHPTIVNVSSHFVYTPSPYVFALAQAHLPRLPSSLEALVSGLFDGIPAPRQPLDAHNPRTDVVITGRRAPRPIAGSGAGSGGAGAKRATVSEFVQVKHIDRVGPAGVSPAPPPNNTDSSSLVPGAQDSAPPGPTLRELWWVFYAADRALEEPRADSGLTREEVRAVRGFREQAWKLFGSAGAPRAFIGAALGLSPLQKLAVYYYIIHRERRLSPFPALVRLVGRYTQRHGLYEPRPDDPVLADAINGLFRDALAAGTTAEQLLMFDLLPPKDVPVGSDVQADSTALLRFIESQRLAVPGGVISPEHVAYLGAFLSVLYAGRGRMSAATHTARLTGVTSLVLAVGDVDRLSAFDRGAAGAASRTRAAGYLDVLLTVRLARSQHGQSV

T3: pUL21^V382E-H6 (herpes simplex virus 1 (HSV-1), UniProt F8RG07 1-535, V382E)
T3 construct: HSV-1 pUL21, UniProt F8RG07, V382E; the results text prints H6-pUL21^V382E; also called H6-pUL21^V382E; source: E. coli T7 Express lysY/Iq, purified (Ni-NTA, SEC); not shown: His6, C-terminal, kept
T3 sequence: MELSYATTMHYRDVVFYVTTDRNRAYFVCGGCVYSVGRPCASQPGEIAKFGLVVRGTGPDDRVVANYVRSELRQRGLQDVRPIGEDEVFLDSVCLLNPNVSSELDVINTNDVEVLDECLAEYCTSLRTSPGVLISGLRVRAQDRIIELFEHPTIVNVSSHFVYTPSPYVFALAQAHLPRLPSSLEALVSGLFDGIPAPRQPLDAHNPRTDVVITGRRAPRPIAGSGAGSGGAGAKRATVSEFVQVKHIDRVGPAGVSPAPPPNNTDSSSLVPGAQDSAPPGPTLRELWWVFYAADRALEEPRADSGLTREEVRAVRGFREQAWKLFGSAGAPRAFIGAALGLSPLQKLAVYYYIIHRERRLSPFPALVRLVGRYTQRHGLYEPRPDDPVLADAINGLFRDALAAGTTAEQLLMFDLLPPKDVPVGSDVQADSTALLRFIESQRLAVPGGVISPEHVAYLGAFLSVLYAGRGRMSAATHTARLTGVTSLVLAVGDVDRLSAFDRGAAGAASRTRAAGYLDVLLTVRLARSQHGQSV

T4: pUL21-H6 (herpes simplex virus 1 (HSV-1), UniProt F8RG07 1-535)
T4 construct: HSV-1 pUL21, UniProt F8RG07; some paragraphs print H6-pUL21; also called H6-pUL21; WT pUL21; source: E. coli T7 Express lysY/Iq, purified (Ni-NTA, SEC); not shown: His6, C-terminal, kept
T4 sequence: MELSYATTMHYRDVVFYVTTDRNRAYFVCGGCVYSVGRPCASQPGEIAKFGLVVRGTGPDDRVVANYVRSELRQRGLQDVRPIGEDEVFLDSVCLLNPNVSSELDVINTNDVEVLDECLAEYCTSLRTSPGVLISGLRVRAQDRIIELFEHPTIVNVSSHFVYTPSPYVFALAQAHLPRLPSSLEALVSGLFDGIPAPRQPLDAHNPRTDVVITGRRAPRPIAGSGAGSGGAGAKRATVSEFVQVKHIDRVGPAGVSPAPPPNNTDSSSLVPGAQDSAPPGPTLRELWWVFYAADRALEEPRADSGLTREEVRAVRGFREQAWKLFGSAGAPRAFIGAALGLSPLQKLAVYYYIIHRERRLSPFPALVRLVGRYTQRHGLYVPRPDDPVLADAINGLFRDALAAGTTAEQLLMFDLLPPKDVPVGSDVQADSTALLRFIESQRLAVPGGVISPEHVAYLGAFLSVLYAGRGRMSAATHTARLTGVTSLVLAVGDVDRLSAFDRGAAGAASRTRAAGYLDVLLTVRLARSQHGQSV

T5: H6-pUL21C (herpes simplex virus 1 (HSV-1), UniProt F8RG07 275-535)
T5 construct: HSV-1 pUL21 C-terminal domain, amino acids 275-535, UniProt F8RG07; Cloned in pOPTH; Monomer by SEC-MALS and SAXS; also called C-terminal domain of pUL21; source: E. coli T7 Express lysY/Iq, purified (Ni-NTA, SEC); not shown: MAH6, N-terminal, kept
T5 sequence: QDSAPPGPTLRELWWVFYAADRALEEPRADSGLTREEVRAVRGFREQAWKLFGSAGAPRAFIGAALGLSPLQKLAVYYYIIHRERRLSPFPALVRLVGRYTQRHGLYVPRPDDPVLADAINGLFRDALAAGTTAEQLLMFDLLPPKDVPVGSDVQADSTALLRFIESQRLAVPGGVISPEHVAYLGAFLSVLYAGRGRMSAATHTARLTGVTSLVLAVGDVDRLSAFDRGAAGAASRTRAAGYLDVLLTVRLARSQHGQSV

B1: H6-miniCERTL (CERTL residues 20-131 plus 351-624) (domain or fragment, human, UniProt Q9Y5P4-1 20-131, looked up)
chain: SGPPVERCGVLSKWTNYIHGWQDRWVVLKNNALSYYKSEDETEYGCRGSICLSKAVITPHDFDECRFDISVNDSVWYLRAQDPDHRQQWIDAIEQHKTESGYGSESSLRRHGTSLPSGDAFSSVGTHRFVQKPYSRSSSMSSIDLVSASDDVHRFSSQVEEMVQNHMTYSLQDVGGDANWQLVVEEGEMKVYRREVEENGIVLDPLKATHAVKGVTGHEVCNYFWNVDVRNDWETTIENFHVVETLADNAIIIYQTHKRVWPASQRDVLYLSVIRKIPALTENDPETWIVCNFSVDHDSAPLNNRCVRAKINVAMICQTLVSPPEGNQEISRDNILCKITYVANVNPGGWAPASVLRAVAKREYPKFLKRFTSYVQEKTAGKPILF
notes: human CERTL, PH domain and start of the middle region, residues 20-131 of Q9Y5P4-1; human CERTL, end of the middle region and STARTL domain, residues 351-624 of Q9Y5P4-1 (middle region residues 132-350 left out); source: E. coli T7 Express lysY/Iq, purified (Ni-NTA, SEC); not shown: MAH6, N-terminal, kept
B2: H6-miniCERTL (domain or fragment, human, UniProt Q9Y5P4-1 20-624, looked up)
chain: SGPPVERCGVLSKWTNYIHGWQDRWVVLKNNALSYYKSEDETEYGCRGSICLSKAVITPHDFDECRFDISVNDSVWYLRAQDPDHRQQWIDAIEQHKTESGYGSESSLRRHGTSLPSGDAFSSVGTHRFVQKPYSRSSSMSSIDLVSASDDVHRFSSQVEEMVQNHMTYSLQDVGGDANWQLVVEEGEMKVYRREVEENGIVLDPLKATHAVKGVTGHEVCNYFWNVDVRNDWETTIENFHVVETLADNAIIIYQTHKRVWPASQRDVLYLSVIRKIPALTENDPETWIVCNFSVDHDSAPLNNRCVRAKINVAMICQTLVSPPEGNQEISRDNILCKITYVANVNPGGWAPASVLRAVAKREYPKFLKRFTSYVQEKTAGKPILF
notes: human CERTL, UniProt Q9Y5P4-1, residues 20-131 plus 351-624 (PH and STARTL domains joined by a retained 23 amino acid stretch of the middle region); Cloned into pOPTH; Monomer by SEC-MALS; source: E. coli T7 Express lysY/Iq, purified (Ni-NTA, SEC); not shown: MAH6, N-terminal, kept

Experiments:
Settings in all cases: both partners purified
[1] = biological target: T1, H6-pUL21C (C-terminal domain of HSV-1 …); experiment: ITC; CERTL forms in the syringe titrated into pUL21 forms in the cell; 25 °C; 20 mM Tris pH 8.5, 500 mM NaCl, 0.5 mM TCEP; one-site binding model; single titrations
[2] = biological target: T2, pUL21^V382E-H6 (HSV-1 pUL21 with V382E); experiment: as above
[3] = biological target: T3, pUL21^V382E-H6; experiment: ITC; 25 °C; 20 mM Tris pH 8.5, 500 mM NaCl, 0.5 mM TCEP; CERTL forms in the syringe titrated into pUL21 forms in the cell; one-site binding model
[4] = biological target: T4, pUL21-H6; experiment: as above
[5] = biological target: T5, H6-pUL21C; experiment: as above

Binder	Kd [1]	stoichiometry N [1]	Kd [2]	stoichiometry N [2]	Kd [3] [µM]	dH [3] [kcal/mol]	stoichiometry N [3]	Kd [4] [µM]	dH [4] [kcal/mol]	stoichiometry N [4]	dH [5] [kcal/mol]	stoichiometry N [5]
B1	5.5 µM and 3.15 µM	0.95 and 1	8.39 µM and 8.83 µM and 7.04 µM	1.22 and 1.01 and 1.25								
B2					8.09	-7.2	1.16	1.04	-8.65	0.89	-3.84	0.97
